Measurements: patent publication US20060223140

Legend:
PAMP-12 = target: T1, PAMP-12
T1 chain: FRKKWNKWALSR

peptide-T = target: T2, peptide-T
T2 chain: ASTTTNYT

B1: recombinant endo-α-N-acetylgalactosaminidase derived from Bifidobacterium longum JCM1217 (protein)
chain: MKKKKTISAALATALALTCMGSGGGTAFAVPLSDADLQTLASQIQQINDTSDSATASETPSAQADAVEGWTIDSNIAQGGEILEMANGWLHLKSTASNGNAAANPSSSNNWPAVAVWGTDYDFSKAGSFHATIKSPQEGSANRFGFYLGYNDPGSGLFIGYDSGGWFWQTYTGGGSGSWYSGARIAAPSANEEHDIRVSWTDAKVATLTVDGQKAFDVDYSAMTNLSNKLAIKAGSWKELNEVTDVYIKDFPEVVEAAKHAVSGKVVDAGGAAIEGATVRLDKTKVKTGADGTFSFADIEEGEHTLSIAKEGYEDVSQQVTVSGADLAIDPITLNKTVQVASETLKTKKMEVQIKKNFPSVLQYTMTDGKVMYGQSKDVRTVEINGTNIELGDDDVTFKKVSDTEATYTLKVKDEAKKIDAVITVQITVKANQLHLNVTKIKNNLSEGIPEGNGVEENAIQTLSFPNQSLVSVRSSQENAQFTGARMSSNTQKPGDTNFAVTEDTNVTDSDYTYGFISGAGLSAGLWSNSEHDGTYVAAPVRGGSQNTRVYATTQQTGDATSLGLASAPWYYHRTVTDSKGKKYTVAETALPQMAVAIAGDENEDGAVNWQDGAIAYRDIMNNPYKSEEVPELVAWRIAMNFGSQAQNPFLTTLDNVKKVALNTDGLGQSVLLKGYGNEGHDSGHPDYGDIGQRLGGADDMNTMMEEGSKYGARFGVHVNASEMYPEAKAFSEDMVRRNSAGGLSYGWNWLDQGVGIDGIYDLASGSRVSRFADLSKEVGDNMDFIYLDVWGNLTSSGSEDSWETRKMSKMINDNGWRMTTEWGSGNEYDSTFQHWAADLTYGGYTSKGENSEVMRFLRNHQKDSWVGDYPQYGGAANAPLLGGYNMKDFEGWQGRNDYAAYIKNLYTHDVSTKFIQHFKVTRWVNNPLLTADNGNAAAVSDPNTNNGNEQITLKDSNGNVVVVSRGSNDTSSAAYRQRTITFNGVKVASGVVSAGDGSATGDESYLLPWMWDSFTGKLVKDSEQKLYHWNTKGGTTTWTLPDSWKNLSSVKVYQLTDQGKTNEQTVAVSGGKVTLTADAETPYVVYKGEAKQIQVNWSEGMHVVDAGFNGGSNTLTDNWTVSGSGKAEVEGDNNAMLRLTGKVDVSQRLTDLKAGQKYALYVGVDNRSTGDASVTVTSGGKVLATNSTGKSIAKNYIKAYGHNTNSNTENGSSYFQNMYVFFTAPENGDATVTLSHKSTDGAHTYFDDVRIVENQYSGITYEKDGTLKSLTNGFENNAQGIWPFVVSGSEGVEDNRIHLSELHAPFTRAGWDVKKMDDVLDGTWSVKVNGLTQKGTLVYQTIPQNVKFEAGAKYKVSFDYQSGSDDIYAIAVGQGEYSAGSVKLTNLKKALGETGKAEFELTGGVNGDSWFGIYSTATAPDLQGSTGNAQDFGGYKDFVLDNLKIERIESQTRTKAEAQDKVKEIRGKYDSKRAELSDAAWQQYQDTLVKARVLINKNGATAEDFTKAYDILVALDEYMKTAPGNESSDKYDVAADGSDELGGYTVATGSEEPTAGLPSEGPADLAQDGNDSTHWHTSWSENAVGNGTAWYQFNLNEPTTINGLRYLPRSGGMNANGKIKGYKITLTLADGTTKDVVTDAEFSTTTMWQKASFDAVENVTAVRSTVLSSAGQSDSQANKFASAAELRLTTDREVEEETVAPDKTDLNDTIAKANGLKESDYTAESWTALVKAREAAQAVADNDKATAYDVALALTNLESAIAGLEKTGEEPGPGPVEVNKTDLQTAVNKASKLEKADYTTNSWEAFAEALKAAQQVLDNKNATQQDVDTALSALQDAISKLEAATEPKPNPEPGVVDKAALNATINKAAAINLGLYTDDSANALRAALKKAREVSDNSNATQKQVDAAREALEKAIAALVKRPAAKGDGNVVSNTGSDVATIALAGLLLAGAGAAIAYRRNREQL
For B1, the “transglycosylation activity (HPLC product peak; confirmed by MALDI-TOF-MS)” value (shortened to “transglycosylation activity”) (PAMP-12) was “it was demonstrated that the sugar chain was transferred to each peptide because peaks of transglycosylation products ("product" portion in each Figure) were observed”, the “transglycosylation activity” value (peptide-T) was “it was demonstrated that the sugar chain was transferred to each peptide because peaks of transglycosylation products ("product" portion in each Figure) were observed” and the “transglycosylation activity” value (bradykinin) was “it was demonstrated that the sugar chain was transferred to each peptide because peaks of transglycosylation products ("product" portion in each Figure) were observed”.
